Values quoted from earlier work as cited in article PMC7956452.

Target: RNA polymerase II CTD phosphorylated heptapeptide (Homo sapiens)

## PQBP-1 (from UniProt O60828)
  Kd: 154 µM
